Source: article PMC8989681, “Functional and structural deficiencies of Gemin5 variants associated with neurological disorders” (Life Science Alliance, 2022)
Substitutions are numbered along the chain they refer to.

Assays:
[1] = target: T1, G5_(845-1508)-A951E-TAP (human), Q8TEQ6; assay: co-IP; G5_(845-1508)-TAP baits expressed 24 h in HEK293; complexes purified by TAP (IgG Sepharose, TEV protease, calmodulin); endogenous Gemin5 and bait detected by WB with anti-Gemin5; Gemin5 intensity normalised to the purified bait; conditions: remark: other sources report otherwise
T1 chain: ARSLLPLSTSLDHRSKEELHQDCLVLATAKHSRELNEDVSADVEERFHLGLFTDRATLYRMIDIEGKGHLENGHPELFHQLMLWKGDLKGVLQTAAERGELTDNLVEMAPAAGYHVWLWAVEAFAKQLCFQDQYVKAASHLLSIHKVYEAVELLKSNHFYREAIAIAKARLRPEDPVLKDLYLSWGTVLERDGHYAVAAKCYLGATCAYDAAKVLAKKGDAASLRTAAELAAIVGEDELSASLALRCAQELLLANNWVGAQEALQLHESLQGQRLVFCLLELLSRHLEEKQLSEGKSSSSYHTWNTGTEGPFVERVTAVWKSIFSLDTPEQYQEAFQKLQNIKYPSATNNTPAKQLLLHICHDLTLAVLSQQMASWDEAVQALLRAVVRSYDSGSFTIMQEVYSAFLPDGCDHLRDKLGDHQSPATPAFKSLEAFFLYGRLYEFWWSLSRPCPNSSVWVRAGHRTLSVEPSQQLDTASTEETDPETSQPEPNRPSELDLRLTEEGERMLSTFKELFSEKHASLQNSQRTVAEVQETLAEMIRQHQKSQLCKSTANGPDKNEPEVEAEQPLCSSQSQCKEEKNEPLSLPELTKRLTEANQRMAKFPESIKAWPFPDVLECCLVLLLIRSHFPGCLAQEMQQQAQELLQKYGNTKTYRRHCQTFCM

G5_(845-1508)-R1016C-TAP [2] = target: T2, G5_(845-1508)-R1016C-TAP (human, UniProt Q8TEQ6 845-1508, R1016C); assay: as above; conditions: partners not purified
T2 construct: Vector pcDNA3-CTAP; source: HEK293, transfected, in soluble cell extract; purified by TAP
T2 sequence (looked up): T1 chain with E107A, R172C

G5_(845-1508)-D1019E-TAP [3] = target: T3, G5_(845-1508)-D1019E-TAP (human, UniProt Q8TEQ6 845-1508, D1019E); assay: as above; conditions: partners not purified
T3 construct: Vector pcDNA3-CTAP; source: HEK293, transfected, in soluble cell extract; purified by TAP
T3 sequence (looked up): T1 chain with E107A, D175E

G5_(845-1508)-R1016C-TAP [4] = target: T2, G5_(845-1508)-R1016C-TAP; assay: affinity purification with mass spectrometry; G5_(845-1508)-TAP baits expressed in HEK293; TAP purification, in-gel trypsin digestion, LC-MS/MS, PEAKS; two biological replicates; at least two distinct peptides; conditions: partners not purified
G5_(845-1508)-L1367P-TAP = target: T4, G5_(845-1508)-L1367P-TAP (human, UniProt Q8TEQ6 845-1508, L1367P); assay: as above; conditions: partners not purified
T4 construct: Vector pcDNA3-CTAP; Expressed at lower levels than the WT; also called RBS1 variant L1367P; source: HEK293, transfected, in soluble cell extract; purified by TAP
T4 sequence (looked up): T1 chain with E107A, L523P

G5_(845-1508)-D1019E-TAP [5] = target: T3, G5_(845-1508)-D1019E-TAP; assay: as above; conditions: partners not purified

B1: endogenous Gemin5 protein (natural protein, human (endogenous in HEK293), UniProt Q8TEQ6 1-1508, looked up)
chain: MGQEPRTLPPSPNWYCARCSDAVPGGLFGFAARTSVFLVRVGPGAGESPGTPPFRVIGELVGHTERVSGFTFSHHPGQYNLCATSSDDGTVKIWDVETKTVVTEHALHQHTISTLHWSPRVKDLIVSGDEKGVVFCYWFNRNDSQHLFIEPRTIFCLTCSPHHEDLVAIGYKDGIVVIIDISKKGEVIHRLRGHDDEIHSIAWCPLPGEDCLSINQEETSEEAEITNGNAVAQAPVTKGCYLATGSKDQTIRIWSCSRGRGVMILKLPFLKRRGGGIDPTVKERLWLTLHWPSNQPTQLVSSCFGGELLQWDLTQSWRRKYTLFSASSEGQNHSRIVFNLCPLQTEDDKQLLLSTSMDRDVKCWDIATLECSWTLPSLGGFAYSLAFSSVDIGSLAIGVGDGMIRVWNTLSIKNNYDVKNFWQGVKSKVTALCWHPTKEGCLAFGTDDGKVGLYDTYSNKPPQISSTYHKKTVYTLAWGPPVPPMSLGGEGDRPSLALYSCGGEGIVLQHNPWKLSGEAFDINKLIRDTNSIKYKLPVHTEISWKADGKIMALGNEDGSIEIFQIPNLKLICTIQQHHKLVNTISWHHEHGSQPELSYLMASGSNNAVIYVHNLKTVIESSPESPVTITEPYRTLSGHTAKITSVAWSPHHDGRLVSASYDGTAQVWDALREEPLCNFRGHRGRLLCVAWSPLDPDCIYSGADDFCVHKWLTSMQDHSRPPQGKKSIELEKKRLSQPKAKPKKKKKPTLRTPVKLESIDGNEEESMKENSGPVENGVSDQEGEEQAREPELPCGLAPAVSREPVICTPVSSGFEKSKVTINNKVILLKKEPPKEKPETLIKKRKARSLLPLSTSLDHRSKEELHQDCLVLATAKHSRELNEDVSADVEERFHLGLFTDRATLYRMIDIEGKGHLENGHPELFHQLMLWKGDLKGVLQTAAERGELTDNLVAMAPAAGYHVWLWAVEAFAKQLCFQDQYVKAASHLLSIHKVYEAVELLKSNHFYREAIAIAKARLRPEDPVLKDLYLSWGTVLERDGHYAVAAKCYLGATCAYDAAKVLAKKGDAASLRTAAELAAIVGEDELSASLALRCAQELLLANNWVGAQEALQLHESLQGQRLVFCLLELLSRHLEEKQLSEGKSSSSYHTWNTGTEGPFVERVTAVWKSIFSLDTPEQYQEAFQKLQNIKYPSATNNTPAKQLLLHICHDLTLAVLSQQMASWDEAVQALLRAVVRSYDSGSFTIMQEVYSAFLPDGCDHLRDKLGDHQSPATPAFKSLEAFFLYGRLYEFWWSLSRPCPNSSVWVRAGHRTLSVEPSQQLDTASTEETDPETSQPEPNRPSELDLRLTEEGERMLSTFKELFSEKHASLQNSQRTVAEVQETLAEMIRQHQKSQLCKSTANGPDKNEPEVEAEQPLCSSQSQCKEEKNEPLSLPELTKRLTEANQRMAKFPESIKAWPFPDVLECCLVLLLIRSHFPGCLAQEMQQQAQELLQKYGNTKTYRRHCQTFCM
notes: Gemin5, human, full-length endogenous protein of HEK293 cells; also called full-length Gemin5; source: endogenous, HEK293 soluble cell extract
fold by which the recruitment by WT exceeds that by this mutant [1]: 10 fold | co-IP intensity relative to the WT protein (G5_(845-1508)-R1016C-TAP [2]): 58% | co-IP intensity relative to the WT protein (G5_(845-1508)-D1019E-TAP [3]): 62% | ratio of peptide reads of region 1-844 to region 845-1508, relative to G5_(845-1508)-WT (G5_(845-1508)-R1016C-TAP [4]): 0.77 | ratio of peptide reads of region 1-844 to region 845-1508, relative to G5_(845-1508)-WT (G5_(845-1508)-L1367P-TAP): 0.9 | ratio of peptide reads of region 1-844 to region 845-1508, relative to G5_(845-1508)-WT (G5_(845-1508)-D1019E-TAP [5]): 0.56
